In US6440696 (NEW ENGLAND MEDICAL CENTER, dated 2002):

B2: pGBT9-E6 bait (GAL4 fused to HPV16 E6 residues 2-158) (other)
chain: MKLLSSIEQACDICRLKKLKCSKEKPKCAKCLKNNWECRYSPKTKRSPLTRAHLTEVESRLERLEQLFLLIFPREDLDMILKMDSLQDIKALLTGLFVQDNVNKDAVTDRLASVETDMPLTLRQHRISATSSSEESSNKGQRQLTVSHQKRTAMFQDPQERPRKLPQLCTELQTTIHDIILECVYCKQQLLRREVYDFAFRDLCIVYRDGNPYAVCDKCLKFYSKISEYRHYCYSLYGTTLEQQYNKPLCDLLIRCINCQKPLCPEEKQRHLDKKQRFHNIRGRWTGRCMSCCRSSRTRRETQL
notes: also called pGB9-E6
B4: human lamin/GAL4 DNA binding domain fusion protein (pLam 5') (other)
chain: MKLLSSIEQACDICRLKKLKCSKEKPKCAKCLKNNWECRYSPKTKRSPLTRAHLTEVESRLERLEQLFLLIFPREDLDMILKMDSLQDIKALLTGLFVQDNVNKDAVTDRLASVETDMPLTLRQHRISATSSSEESSNKGQRQLTVSSEEVVSREVSGIKAAYEAELGDARKTLDSVAKERARLQLELSKVREEFKELKARNTKKEGDLIAAQARLKDLEALLNSKEAALSTALSEKRTLEGELHDLRGQVAKLEAALGEAKKQLQDEMLRRVDAENRLQTMKEELDFQKNIYSEELRETKRRHETRLVEID
notes: Control bait from Clontech; also called human lamin fused to Gal4 in pGBT9
B5: pGAD10 two-hybrid clone encoding the 378 carboxyl terminal amino acid residues of E6TP1 (other)
chain: SSRHSASPVVFTSARSSPKEELHPAAPSQLAPSFSSSSSSSSGPRSFYPRQGATSKYLIGWKKPEGTINSVGFMDTRKRHQSDGNEIAHTRLRASTRDLRASPKPTSKSTIEEDLKKLIDLESPTPESQKSFKFHALSSPQSPFPSTPTSRRALHRTLSDESIYNSQREHFFTSRASLLDQALPNDVLFSSTYPSLPKSLPLRRPSYTLGMKSLHGEFSASDSSLTDIQETRRQPMPDPGLMPLPDTAADLDWSNLVDAAKAYEVQRASFFAASDENHRPLSAASNSDQLEDQALAQMKPYSSSKDSSPTLASKVDQLEGMLKMLREDLKKEKEDKAHLQAEVQHLREDNLRLQEESQNASDKLKKFTEWVFNTIDMS
notes: also called one distinct strongly positive clone; longer yeast two-hybrid cDNA clone
B6: murine p53/GAL4 DNA binding domain fusion protein (pVA3) (other)
chain: MKLLSSIEQACDICRLKKLKCSKEKPKCAKCLKNNWECRYSPKTKRSPLTRAHLTEVESRLERLEQLFLLIFPREDLDMILKMDSLQDIKALLTGLFVQDNVNKDAVTDRLASVETDMPLTLRQHRISATSSSEESSNKGQRQLTVSPVTETPGPVAPAPATPWPLSSFVPSQKTYQGNYGFHLGFLQSGTAKSVMCTYSPPLNKLFCQLAKTCPVQLWVSATPPAGSRVRAMAIYKKSQHMTEVVRRCPHHERCSDGDGLAPPQHLIRVEGNLYPEYLEDRQTFRHSVVVPYEPPEAGSEYTTIHYKYMCNSSCMGGMNRRPILTIITLEDSSGNLLGRDSFEVRVCACPGRDRRTEEENFRKKEVLCPELPPGSAKRALPTCTSASPPQKKKPLDGEYFTLKIRGRKRFEMFRELNEALELKDAHATEESGDSRAHSSYLKTKKGQSTSRHKKTMVKKVGPDSD
notes: Control bait from Clontech; also called murine p53 fused to Gal4 in pGBT9

Key:
[1] = target: B6; experiment: yeast two-hybrid, control bait
[2] = target: B4; experiment: yeast two-hybrid, control bait
[3] = target: B2; experiment: yeast two-hybrid: growth on Trp-, Leu-, His- medium and beta-gal activity
[4] = target: B5; experiment: as above
GST = target: T1, GST (UniProt P08515 1-218 = GST); experiment: GST pull-down of in vitro translated 35S-labelled E6
T1 construct: Negative control; also called GST alone

[5] = target: T2, pGAD10 two-hybrid clone encoding the 476 carboxyl-terminal amino acids of E6-AP (human, UniProt Q05086 400-875); experiment: yeast two-hybrid, control bait
T2 construct: domain: 476 carboxyl-terminal amino acids; also called one weakly positive clone
T2 sequence: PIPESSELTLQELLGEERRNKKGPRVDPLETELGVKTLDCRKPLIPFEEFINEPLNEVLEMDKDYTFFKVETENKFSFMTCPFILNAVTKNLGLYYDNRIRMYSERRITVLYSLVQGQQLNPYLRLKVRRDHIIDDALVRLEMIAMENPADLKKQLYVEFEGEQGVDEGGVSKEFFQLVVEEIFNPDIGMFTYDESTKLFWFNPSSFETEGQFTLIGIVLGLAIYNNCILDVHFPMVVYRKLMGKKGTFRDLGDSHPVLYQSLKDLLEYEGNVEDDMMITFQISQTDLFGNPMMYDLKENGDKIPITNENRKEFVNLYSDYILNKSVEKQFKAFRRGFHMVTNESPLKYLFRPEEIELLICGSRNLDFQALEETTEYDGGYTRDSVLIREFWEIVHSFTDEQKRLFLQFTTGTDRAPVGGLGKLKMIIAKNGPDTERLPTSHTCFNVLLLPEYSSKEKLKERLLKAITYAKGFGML

[6] = target: B5; experiment: yeast two-hybrid, control bait

T1 sequence (P08515 whole entry): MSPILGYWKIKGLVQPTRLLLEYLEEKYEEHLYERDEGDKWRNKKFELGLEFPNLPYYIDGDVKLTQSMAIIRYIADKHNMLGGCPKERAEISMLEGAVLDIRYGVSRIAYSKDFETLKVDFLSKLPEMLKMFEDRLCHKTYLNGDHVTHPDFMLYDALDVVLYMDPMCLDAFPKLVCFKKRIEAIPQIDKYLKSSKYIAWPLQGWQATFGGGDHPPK

B1: pGAD10 two-hybrid clone encoding the 194 carboxyl terminal amino acid residues of E6TP1 (other)
chain: NDVLFSSTYPSLPKSLPLRRPSYTLGMKSLHGEFSASDSSLTDIQETRRQPMPDPGLMPLPDTAADLDWSNLVDAAKAYEVQRASFFAASDENHRPLSAASNSDQLEDQALAQMKPYSSSKDSSPTLASKVDQLEGMLKMLREDLKKEKEDKAHLQAEVQHLREDNLRLQEESQNASDKLKKFTEWVFNTIDMS
notes: also called set of eleven identical strongly positive clones
binding result [1]: no binding | binding result [2]: no binding | binding result [3]: binds

B2
binding result [4]: binds

B3: HPV16 E6 protein (other)
chain: MFQDPQERPRKLPQLCTELQTTIHDIILECVYCKQQLLRREVYDFAFRDLCIVYRDGNPYAVCDKCLKFYSKISEYRHYCYSLYGTTLEQQYNKPLCDLLIRCINCQKPLCPEEKQRHLDKKQRFHNIRGRWTGRCMSCCRSSRTRRETQL
notes: also called high-risk HPV16 E6; wild-type E6
binding result (GST): no binding (tested: 1 µg GST fusion protein)

B4
binding result [5]: no binding | binding result [6]: no binding

B5
binding result [1]: no binding

B6
binding result [5]: no binding

B7: HPV6 E6 protein (other)
chain: MESANASTSATTIDQLCKTFNLSMHTLQINCVFCKNALTTAEIYSYAYKHLKVLFRGGYPYAACACCLEFHGKINQYRHFDYAGYATTVEEETKQDILDVLIRCYLCHKPLCEVEKVKHILTKARFIKLNCTWKGRCLHCWTTCMEDMLP
notes: also called low-risk HPV6 E6
binding result (GST): no binding (tested: 1 µg GST fusion protein)

B8: HPV11 E6 protein (other)
chain: MESKDASTSATSIDQLCKTFNLSLHTLQIQCVFCRNALTTAEIYAYAYKNLKVVWRDNFPFAACACCLELQGKINQYRHFNYAAYAPTVEEETNEDILKVLIRCYLCHKPLCEIEKLKHILGKARFIKLNNQWKGRCLHCWTTCMEDLLP
binding result (GST): no binding (tested: 1 µg GST fusion protein)
